1 substance from publication PMC10326918 can be followed below.

The target in the assay is Concanavalin A (Canavalia ensiformis). Briefly: native MS; static nESI under native-like conditions, 200 mM ammonium acetate pH 6.8, 5 uM monomer; tetramer [M + 21H]21+ ions (m/z 4901) selected with the quadrupole, then 193 nm UVPD or HCD, read by Orbitrap or orthogonal TOF/TPX3; tetramer dissociates to monomers and trimers.

Take Concanavalin A (natural protein): the stoichiometry N (as a rule, the number of molecules, sites or subunits per partner or assembly) was found to be 4.
